According to article PMC9482650, “Quantitative fragmentomics allow affinity mapping of interactomes” (Nature Communications, 2022):
Values belong to the binder of their own block, whether it stands above or below them.

What was measured:
Test in all cases: holdup assay
Parameters in all cases: key: below the threshold = too weak to quantify, mostly under pKd 3.1 to 4
Conditions in all cases: plain residues with an end cap or a label only (N-terminal biotin on a linker: ado-ado)
[1] = target: T1, DFNB31_3, Q9P202
T1 sequence (Q9P202 811-907, limits assumed, looked up): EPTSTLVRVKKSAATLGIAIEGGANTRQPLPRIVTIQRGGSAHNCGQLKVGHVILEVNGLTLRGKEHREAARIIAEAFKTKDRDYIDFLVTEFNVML

[2] = target: DLG4_2, P78352
Chain of DLG4_2, P78352 (P78352 155-259): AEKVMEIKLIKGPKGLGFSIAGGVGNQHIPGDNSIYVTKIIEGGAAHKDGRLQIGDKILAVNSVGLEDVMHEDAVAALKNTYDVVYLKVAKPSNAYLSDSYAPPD

[3] = target: DLG4_3, P78352
Chain of DLG4_3, P78352 (P78352 306-403): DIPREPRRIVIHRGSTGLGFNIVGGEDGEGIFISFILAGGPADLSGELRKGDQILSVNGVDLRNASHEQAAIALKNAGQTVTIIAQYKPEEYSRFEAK

[4] = target: T2, DVL3, Q92997
T2 sequence (Q92997 244-331, limits assumed, looked up): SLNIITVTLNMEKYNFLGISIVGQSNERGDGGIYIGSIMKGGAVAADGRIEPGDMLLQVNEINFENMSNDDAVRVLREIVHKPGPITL

[5] = target: GIPC2, Q8TF65
Chain of GIPC2, Q8TF65 (Q8TF65 112-203): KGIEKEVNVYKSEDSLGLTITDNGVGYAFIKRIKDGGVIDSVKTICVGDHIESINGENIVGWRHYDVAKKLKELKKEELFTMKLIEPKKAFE

[6] = target: GORASP1, Q9BQQ3
Chain of GORASP1, Q9BQQ3 (Q9BQQ3 1-208): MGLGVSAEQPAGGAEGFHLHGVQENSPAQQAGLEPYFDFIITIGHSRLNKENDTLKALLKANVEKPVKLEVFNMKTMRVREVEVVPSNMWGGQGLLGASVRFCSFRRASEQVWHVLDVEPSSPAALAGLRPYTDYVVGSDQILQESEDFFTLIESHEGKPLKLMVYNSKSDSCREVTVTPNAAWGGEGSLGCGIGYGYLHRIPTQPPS

[7] = target: GORASP2, Q9H8Y8
[8] = target: T3, GRIP1_2, Q9Y3R0
T3 sequence (Q9Y3R0 145-248, limits assumed, looked up): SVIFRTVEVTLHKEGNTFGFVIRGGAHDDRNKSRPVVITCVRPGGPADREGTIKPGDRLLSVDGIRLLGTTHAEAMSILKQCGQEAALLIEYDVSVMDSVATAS

[9] = target: T4, GRIP1_3, Q9Y3R0
T4 sequence (Q9Y3R0 247-346, limits assumed, looked up): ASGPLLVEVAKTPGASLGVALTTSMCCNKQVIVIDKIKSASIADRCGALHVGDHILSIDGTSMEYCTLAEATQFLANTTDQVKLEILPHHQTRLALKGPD

[10] = target: T5, GRIP1_5, Q9Y3R0
T5 sequence (Q9Y3R0 568-668, limits assumed, looked up): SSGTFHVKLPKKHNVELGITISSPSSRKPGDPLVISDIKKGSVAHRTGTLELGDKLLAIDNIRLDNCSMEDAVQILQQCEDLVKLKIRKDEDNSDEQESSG

[11] = target: HTRA1, Q92743
Chain of HTRA1, Q92743 (Q92743 360-477): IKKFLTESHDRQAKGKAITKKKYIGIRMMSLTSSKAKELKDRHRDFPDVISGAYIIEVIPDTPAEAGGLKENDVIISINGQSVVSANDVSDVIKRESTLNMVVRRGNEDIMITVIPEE

[12] = target: Inadl_10, Q8NI35
Chain of Inadl_10, Q8NI35 (Q8NI35 1673-1763): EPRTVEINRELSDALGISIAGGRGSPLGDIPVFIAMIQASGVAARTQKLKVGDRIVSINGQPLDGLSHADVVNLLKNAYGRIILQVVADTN

[13] = target: T6, LIN7A, O14910
T6 sequence (O14910 103-200, limits assumed, looked up): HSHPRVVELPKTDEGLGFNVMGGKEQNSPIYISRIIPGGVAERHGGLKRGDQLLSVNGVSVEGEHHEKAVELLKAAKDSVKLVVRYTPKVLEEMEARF

[14] = target: LNX1_1, Q8TBB1
Chain of LNX1_1, Q8TBB1 (Q8TBB1 261-371): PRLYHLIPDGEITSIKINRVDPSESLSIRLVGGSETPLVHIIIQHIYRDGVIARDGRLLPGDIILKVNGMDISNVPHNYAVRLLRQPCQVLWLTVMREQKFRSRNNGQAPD

[15] = target: LNX1_3, Q8TBB1
Chain of LNX1_3, Q8TBB1 (Q8TBB1 500-596): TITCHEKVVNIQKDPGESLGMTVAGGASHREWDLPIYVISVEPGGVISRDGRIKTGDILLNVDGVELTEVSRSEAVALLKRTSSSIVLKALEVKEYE

[16] = target: MAGI1_1, Q96QZ7
Chain of MAGI1_1, Q96QZ7 (Q96QZ7 1-106): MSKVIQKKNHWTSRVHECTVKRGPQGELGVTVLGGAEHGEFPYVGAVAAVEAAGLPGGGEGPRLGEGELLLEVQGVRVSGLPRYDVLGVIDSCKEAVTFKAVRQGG

[17] = target: MAST2, Q6P0Q8
Chain of MAST2, Q6P0Q8 (Q6P0Q8 1099-1202): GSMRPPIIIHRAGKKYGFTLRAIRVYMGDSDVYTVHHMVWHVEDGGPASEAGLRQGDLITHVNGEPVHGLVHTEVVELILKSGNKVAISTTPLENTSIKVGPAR

[18] = target: NHERF4_2, Q86UT5
Chain of NHERF4_2, Q86UT5 (Q86UT5 220-308): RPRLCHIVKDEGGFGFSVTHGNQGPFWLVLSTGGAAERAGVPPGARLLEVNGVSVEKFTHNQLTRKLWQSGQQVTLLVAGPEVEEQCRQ

[19] = target: NHERF4_4, Q86UT5
Chain of NHERF4_4, Q86UT5 (Q86UT5 464-550): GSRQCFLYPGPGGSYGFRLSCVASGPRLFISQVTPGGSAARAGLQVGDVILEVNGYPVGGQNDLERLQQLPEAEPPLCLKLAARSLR

[20] = target: PDLIM1, O00151
Chain of PDLIM1, O00151 (O00151 1-87): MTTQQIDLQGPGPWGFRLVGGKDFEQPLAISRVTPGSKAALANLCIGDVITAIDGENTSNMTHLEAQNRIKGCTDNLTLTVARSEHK

[21] = target: T7, PDZRN3_1, Q9UPQ7
T7 sequence (Q9UPQ7 244-349, limits assumed, looked up): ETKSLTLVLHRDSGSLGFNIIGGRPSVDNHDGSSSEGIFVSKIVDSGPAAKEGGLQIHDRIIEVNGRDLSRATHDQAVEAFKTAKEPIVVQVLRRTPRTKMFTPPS

[22] = target: PDZRN4_1, Q6ZMN7
Chain of PDZRN4_1, Q6ZMN7 (Q6ZMN7 213-318): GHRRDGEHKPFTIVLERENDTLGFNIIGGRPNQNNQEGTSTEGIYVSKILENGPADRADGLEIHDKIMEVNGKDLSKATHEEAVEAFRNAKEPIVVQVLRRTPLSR

[23] = target: T8, RADIL, Q96JH8
T8 sequence (Q96JH8 971-1071, limits assumed, looked up): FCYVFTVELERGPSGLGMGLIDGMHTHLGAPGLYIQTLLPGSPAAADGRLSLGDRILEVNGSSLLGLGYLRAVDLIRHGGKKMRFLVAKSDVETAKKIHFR

[24] = target: T9, RAPGEF6, Q8TEU7
T9 sequence (Q8TEU7 525-625, limits assumed, looked up): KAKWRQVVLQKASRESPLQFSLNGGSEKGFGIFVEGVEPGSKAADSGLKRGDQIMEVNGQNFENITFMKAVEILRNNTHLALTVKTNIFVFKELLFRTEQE

[25] = target: T10, RHPN1, Q8TCX5
T10 sequence (Q8TCX5 508-602, limits assumed, looked up): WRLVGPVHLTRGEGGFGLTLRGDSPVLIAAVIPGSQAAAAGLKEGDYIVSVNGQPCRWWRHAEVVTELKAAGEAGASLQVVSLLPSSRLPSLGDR

[26] = target: SCRIB_1, Q14160
Chain of SCRIB_1, Q14160 (Q14160 718-814): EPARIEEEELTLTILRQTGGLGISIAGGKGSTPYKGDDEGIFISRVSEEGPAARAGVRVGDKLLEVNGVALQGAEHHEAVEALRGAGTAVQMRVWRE

[27] = target: TJP2_1, Q9UDY2
Chain of TJP2_1, Q9UDY2 (Q9UDY2 24-128): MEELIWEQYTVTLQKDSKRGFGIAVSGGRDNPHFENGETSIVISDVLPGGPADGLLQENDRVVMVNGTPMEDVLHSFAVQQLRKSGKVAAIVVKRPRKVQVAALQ

B1: LPXN, O60711 (peptide)
chain: QPCFNKLFPL
pKd [1]: below the threshold | pKd [2]: below the threshold | pKd [3]: below the threshold | pKd [4]: below the threshold | pKd [5]: below the threshold | pKd [6]: 3.68 | pKd [7]: 4 | pKd [8]: below the threshold | pKd [9]: below the threshold | pKd [10]: below the threshold | pKd [11]: below the threshold | pKd [12]: below the threshold | pKd [13]: below the threshold | pKd [14]: below the threshold | pKd [15]: below the threshold | pKd [16]: 3.74 | pKd [17]: 4.75 | pKd [18]: below the threshold | pKd [19]: below the threshold | pKd [20]: below the threshold | pKd [21]: below the threshold | pKd [22]: below the threshold | pKd [23]: below the threshold | pKd [24]: below the threshold | pKd [25]: below the threshold | pKd [26]: below the threshold | pKd [27]: below the threshold

B2: ASNSD1, Q9NWL6 (peptide)
chain: NLSIEKETKL
pKd [1]: 3.52 | pKd [2]: 3.54 | pKd [3]: below the threshold | pKd [4]: below the threshold | pKd [5]: below the threshold | pKd [6]: below the threshold | pKd [7]: below the threshold | pKd [8]: below the threshold | pKd [9]: below the threshold | pKd [10]: below the threshold | pKd [11]: below the threshold | pKd [12]: below the threshold | pKd [13]: below the threshold | pKd [14]: below the threshold | pKd [15]: below the threshold | pKd [16]: below the threshold | pKd [17]: 5.62 | pKd [18]: below the threshold | pKd [19]: below the threshold | pKd [20]: below the threshold | pKd [21]: 4.67 | pKd [22]: 4.83 | pKd [23]: below the threshold | pKd [24]: below the threshold | pKd [25]: 4.76 | pKd [26]: 4.3 | pKd [27]: below the threshold

Results, then the binder that gave them:

pKd [1]: 3.64 | pKd [2]: 3.61 | pKd [3]: below the threshold | pKd [4]: below the threshold | pKd [5]: 4.09 | pKd [6]: below the threshold | pKd [7]: below the threshold | pKd [8]: below the threshold | pKd [9]: below the threshold | pKd [10]: below the threshold | pKd [11]: below the threshold | pKd [12]: below the threshold | pKd [13]: below the threshold | pKd [14]: 3.86 | pKd [15]: below the threshold | pKd [16]: below the threshold | pKd [17]: 5.52 | pKd [18]: below the threshold | pKd [19]: below the threshold | pKd [20]: 4.75 | pKd [21]: below the threshold | pKd [22]: 3.62 | pKd [23]: below the threshold | pKd [24]: 3.6 | pKd [25]: 3.51 | pKd [26]: 4.23 | pKd [27]: below the threshold
B3: ACTN2, P35609 (peptide)
chain: SSALYGESDL

pKd [1]: 3.8 | pKd [2]: below the threshold | pKd [3]: below the threshold | pKd [4]: below the threshold | pKd [5]: below the threshold | pKd [6]: below the threshold | pKd [7]: below the threshold | pKd [8]: below the threshold | pKd [9]: below the threshold | pKd [10]: below the threshold | pKd [11]: 3.92 | pKd [12]: below the threshold | pKd [13]: below the threshold | pKd [14]: below the threshold | pKd [15]: below the threshold | pKd [16]: below the threshold | pKd [17]: 5.62 | pKd [18]: below the threshold | pKd [19]: below the threshold | pKd [20]: below the threshold | pKd [21]: 3.8 | pKd [22]: 3.64 | pKd [23]: below the threshold | pKd [24]: below the threshold | pKd [25]: 4.85 | pKd [26]: 3.79 | pKd [27]: below the threshold
B4: TRPC5, Q9UL62 (peptide)
chain: GQEEQVTTRL
